Drawing on patent US20220193133A1, this text covers Response, koff and kon for one molecule.

Where only a bound is given, the exact number is not on record here.

For this assay, the target named is D04-his tagged VHH (humanized D04). The experiment in a line: Octet (BLI), anti-idiotype VHH-Fc vs his-tagged VHH; table title prints B11-his, paragraph 353 ties these values to D04.

B1: AMD71 (huB11_CNTY3+4_A02 anti-idiotype VHH IgG1-Fc fusion) (Fc fusion, not shown: a dimerising Fc or GST)
chain: EVQLLESGGGLVQPGGSLRLSCAASGRTYTGSAMGWYRQAPGKERELVSAISTGGETYYADSVKGRFTISRDNSKNTLYLQMNSLRAEDTAVYYCAAGYVGLPYTYRPATSRRGYTYWGQGTQVTVSS
By koff is commonly meant the first-order rate constant of dissociation. A lower koff goes with a long-lived complex. By kon is commonly meant the second-order rate constant of association. Higher therefore signals fast association. Regarding B1, the Response came out at 0.0062, the koff is less than 1e-07 s⁻¹ and the kon worked out at 2160 M⁻¹ s⁻¹.
